{"source": "paper PMC10192418", "about": "(2023)", "binders": {"B1": {"name": "B-RCAL (BÜHLMANN recombinant calprotectin; His6-linker-S100A9-linker-S100A8) (complex)", "chain": "MTCKMSQLERNIETIINTFHQYSVKLGHPDTLNQGEFKELVRKDLQNFLKKENKNEKVIEHIMEDLDTNADKQLSFEEFIMLMARLTWASHEKMHEGDEGPGHHHKPGLGEGTPLEVLFQGPMLTELEKALNSIIDVYHKYSLIKGNFHAVYRDDLKKLLETECPQYIRKKGADVWFKELDINTDGAVNFQEFLILVIKMGVAAHKKSHEESHKE"}}, "key": {"Peptide 11": {"molecular_target": "Peptide 11", "assay": "FP; calcium (tetramer)"}, "Peptide 13": {"molecular_target": "Peptide 13", "assay": "FP; calcium (tetramer)"}, "Peptide 9": {"molecular_target": "Peptide 9", "assay": "FP; calcium (tetramer)"}, "Peptide 10": {"molecular_target": "Peptide 10", "assay": "FP; calcium (tetramer)"}, "Peptide 12": {"molecular_target": "Peptide 12", "assay": "FP; calcium (tetramer)"}, "Peptide 4 [1]": {"molecular_target": "Peptide 4", "assay": "FP; Ca2+"}, "Peptide 6 [2]": {"molecular_target": "Peptide 6", "assay": "FP; Ca2+"}, "Peptide 7 [3]": {"molecular_target": "Peptide 7", "assay": "FP; Ca2+"}, "Peptide 1 [4]": {"molecular_target": "Peptide 1", "assay": "FP; Ca2+"}, "Peptide 2 [5]": {"molecular_target": "Peptide 2", "assay": "FP; Ca2+"}, "Peptide 5": {"molecular_target": "Peptide 5", "assay": "FP; Ca2+"}, "Peptide 4 [6]": {"molecular_target": "Peptide 4", "assay": "SPR"}, "Peptide 6 [7]": {"molecular_target": "Peptide 6", "assay": "SPR"}, "Peptide 3": {"molecular_target": "Peptide 3", "assay": "SPR"}, "Peptide 7 [8]": {"molecular_target": "Peptide 7", "assay": "SPR"}, "Peptide 1 [9]": {"molecular_target": "Peptide 1", "assay": "SPR"}, "Peptide 2 [10]": {"molecular_target": "Peptide 2", "assay": "SPR"}, "Peptide 8": {"molecular_target": "Peptide 8", "assay": "FP; calcium (tetramer)"}, "[11]": {"molecular_target": "B1", "assay": "SPR"}}, "note": "Ends that are not written are not given here. FAM = 5(6)-carboxyfluorescein (N-terminal)"}
{"binder": "B1", "values": [{"measurement": "Kd", "setting": "Peptide 11", "result": 42000, "unit": "nM"}, {"measurement": "Kd", "setting": "Peptide 13", "result": 154000, "unit": "nM"}, {"measurement": "Kd", "setting": "Peptide 9", "result": 29000, "unit": "nM"}, {"measurement": "Kd", "setting": "Peptide 10", "result": 190000, "unit": "nM"}, {"measurement": "Kd", "setting": "Peptide 12", "result": 37000, "unit": "nM"}, {"measurement": "Kd", "setting": "Peptide 4 [1]", "result": 34, "unit": "nM"}, {"measurement": "Kd", "setting": "Peptide 6 [2]", "result": 10, "unit": "nM"}, {"measurement": "Kd", "setting": "Peptide 7 [3]", "result": 25, "unit": "nM"}, {"measurement": "Kd", "setting": "Peptide 1 [4]", "result": 38, "unit": "nM"}, {"measurement": "Kd", "setting": "Peptide 2 [5]", "result": 22, "unit": "nM"}, {"measurement": "Kd", "setting": "Peptide 5", "result": 55, "unit": "nM"}, {"measurement": "Kd", "setting": "Peptide 4 [6]", "result": 1100, "unit": "nM"}, {"measurement": "Kd", "setting": "Peptide 6 [7]", "result": 310, "unit": "nM"}, {"measurement": "Kd", "setting": "Peptide 3", "result": 340, "unit": "nM"}, {"measurement": "Kd", "setting": "Peptide 7 [8]", "result": 840, "unit": "nM"}, {"measurement": "Kd", "setting": "Peptide 1 [9]", "result": 1220, "unit": "nM"}, {"measurement": "Kd", "setting": "Peptide 2 [10]", "result": 400, "unit": "nM"}, {"measurement": "Kd", "setting": "Peptide 8", "result": 89, "unit": "nM"}]}
{"binder": "{FAM}-RSPESVAFPMFQSHWYSG", "note": "[linear peptide 3]", "values": [{"measurement": "Kd", "setting": "[11]", "result": 46, "unit": "nM"}]}
{"binder": "Fluorescein-RCPECVAFPMFQCHWYCG (not fully specified (bridges); also: disulfide pairing not given here)", "note": "[peptide 3 isomer 2]", "values": [{"measurement": "Kd", "setting": "[11]", "result": 500, "unit": "nM"}]}
{"binder": "Fluorescein-RCPECVAFPMFQCHWYCG (not fully specified (bridges); also: disulfide pairing not given here)", "note": "[peptide 3 isomer 3]", "values": [{"measurement": "Kd", "setting": "[11]", "result": 270, "unit": "nM"}]}
